Test results from PMC6093203.

Biological target: F-ΔC2-WWP2 (UniProt O00308)
Assay: fluorescence polarisation

Substance: non-phosphorylated PTEN (n-PTEN) (natural protein)
- Kd: 20 µM
